The values that follow come from patent publication US20120207721A1 (AARHUS UNIVERSITET, published 2012).

The target of this experiment is T1, soluble insulin receptor (IR) (R&D systems, 28-956) (UniProt P06213 28-956).
T1 construct: extracellular domain; Bought protein, coupled to a CM5 chip by NHS/EDC; It may be the same product as m8; also called soluble IR; immobilized soluble insulin receptor
Description: SPR (Biacore), soluble IR coupled to CM5 chip, soluble SorCS1 as analyte. Background: SPR reads the build-up and loss of mass on a sensor chip optically.

What is called Kd is the constant that tells how readily two partners part at equilibrium. Low values mean a tighter complex, high ones a looser complex.

B1: soluble full-length extracellular part of SorCS1 (receptor)
chain: SGADQEKAERGEGASRSPRGVLRDGGQQEPGTRERDPDKATRFRMEELRLTSTTFALTGDSAHNQAMVHWSGHNSSVILILTKLYDYNLGSITESSLWRSTDYGTTYEKLNDKVGLKTILSYLYVCPTNKRKIMLLTDPEIESSLLISSDEGATYQKYRLNFYIQSLLFHPKQEDWILAYSQDQKLYSSAEFGRRWQLIQEGVVPNRFYWSVMGSNKEPDLVHLEARTVDGHSHYLTCRMQNCTEANRNQPFPGYIDPDSLIVQDHYVFVQLTSGGRPHYYVSYRRNAFAQMKLPKYALPKDMHVISTDENQVFAAVQEWNQNDTYNLYISDTRGVYFTLALENVQSSRGPEGNIMIDLYEVAGIKGMFLANKKIDNQVKTFITYNKGRDWRLLQAPDTDLRGDPVHCLLPYCSLHLHLKVSENPYTSGIIASKDTAPSIIVASGNIGSELSDTDISMFVSSDAGNTWRQIFEEEHSVLYLDQGGVLVAMKHTSLPIRHLWLSFDEGRSWSKYSFTSIPLFVDGVLGEPGEETLIMTVFGHFSHRSEWQLVKVDYKSIFDRRCAEEDYRPWQLHSQGEACIMGAKRIYKKRKSERKCMQGKYAGAMESEPCVCTEADFDCDYGYERHSNGQCLPAFWFNPSSLSKDCSLGQSYLNSTGYRKVVSNNCTDGVREQYTAKPQKCPGKAPRGLRIVTADGKLTAEQGHNVTLMVQLEEGDVQRTLIQVDFGDGIAVSYVNLSSMEDGIKHVYQNVGIFRVTVQVDNSLGSDSAVLYLHVTCPLEHVHLSLPFVTTKNKEVNATAVLWPSQVGTLTYVWWYGNNTEPLITLEGSISFRFTSEGMNTITVQVSAGNAILQDTKTIAVYEEFRSLRLSFSPNLDDYNPDIPEWRRDIGRVIKKSLVEATGVPGQHILVAVLPGLPTTAELFVLPYQDPAGENKRSTDDLEQISELLIHTLNQNSVHFELKPGVRVLVHAAHLTAAPLVDLTPTHSG
Regarding B1, the Kd is approximately 5 nM.
